Experiment [1] addresses Heat shock protein beta-1 OS = Homo sapiens (Homo sapiens) (UniProt P04792). The experiment in a line: co-IP with M53 from SW480 lysate, LC-MS.
Experiment [2] addresses Tubulin beta chain OS = Homo sapiens GN = TUBB PE = 1 (Homo sapiens) (UniProt P07437). The experiment in a line: co-IP with M53 from SW480 lysate, LC-MS.
The target in experiment [3] is Junction plakoglobin OS = Homo sapiens GN = JUP PE = 1 (Homo sapiens) (UniProt P14923). The experiment in a line: co-IP with M53 from SW480 lysate, LC-MS.
Experiment [4] deals with ATP synthase subunit beta, mitochondrial OS = Homo (name cut off as printed) (Homo sapiens) (UniProt P06576). The experiment in a line: co-IP with M53 from SW480 lysate, LC-MS.
The target in experiment [5] is Heat shock cognate 71 kDa protein OS = Homo sapiens (Homo sapiens) (UniProt P11142). The experiment in a line: co-IP with M53 from SW480 lysate, LC-MS.
In experiment [6] the target is Isoform 2 of ATP synthase subunit alpha, mitochondrial (UniProt P25705). The experiment in a line: co-IP with M53 from SW480 lysate, LC-MS.
For experiment [7], the target named is Desmoplakin OS = Homo sapiens GN = DSP PE = 1 SV = 3 (Homo sapiens) (UniProt P15924). The experiment in a line: co-IP with M53 from SW480 lysate, LC-MS.
Experiment [8] deals with ADP/ATP translocase 3 OS = Homo sapiens GN = SLC25A6 (Homo sapiens) (UniProt P12236). The experiment in a line: co-IP with M53 from SW480 lysate, LC-MS.
Experiment [9] concerns the target Heat shock protein HSP 90-alpha OS = Homo sapiens (Homo sapiens) (UniProt P07900). The experiment in a line: co-IP with M53 from SW480 lysate, LC-MS.
The target of experiment [10] is DNA-dependent protein kinase catalytic subunit (UniProt P78527). The experiment in a line: co-IP with M53 from SW480 lysate, LC-MS.
The target of experiment [11] is Isoform 2 of 40S ribosomal protein S20 OS = Homo (name cut off as printed) (Homo sapiens) (UniProt P60866). The experiment in a line: co-IP with M53 from SW480 lysate, LC-MS.
Experiment [12] has as its target Isoform 2 of Annexin A2 OS = Homo sapiens GN = ANXA2 (Homo sapiens) (UniProt P07355). The experiment in a line: co-IP with M53 from SW480 lysate, LC-MS.
In experiment [13] the target is Myosin-9 OS = Homo sapiens GN = MYH9 PE = 1 SV = 4 (Homo sapiens) (UniProt P35579). The experiment in a line: co-IP with M53 from SW480 lysate, LC-MS.
Experiment [14] deals with Tubulin beta-4B chain OS = Homo sapiens GN = TUBB4B (Homo sapiens) (UniProt P68371). Briefly: co-IP with M53 from SW480 lysate, LC-MS.
Experiment [15] concerns the target 40S ribosomal protein S3 OS = Homo sapiens GN = RPS3 (Homo sapiens) (UniProt P23396). Briefly: co-IP with M53 from SW480 lysate, LC-MS.
The target in experiment [16] is Histone H4 OS = Homo sapiens GN = HIST1H4A PE = 1 (Homo sapiens) (UniProt P62805). The experiment in a line: co-IP with M53 from SW480 lysate, LC-MS.
For experiment [17], the target named is 40S ribosomal protein S15a OS = Homo sapiens (Homo sapiens) (UniProt P62244). Briefly: co-IP with M53 from SW480 lysate, LC-MS.
Experiment [18] concerns the target Isoform 2 of Plectin OS = Homo sapiens GN = PLEC (Homo sapiens) (UniProt Q15149). Briefly: co-IP with M53 from SW480 lysate, LC-MS.
In experiment [19] the target is Cytoplasmic dynein 1 heavy chain 1 OS = Homo sapiens (Homo sapiens) (UniProt Q14204). Briefly: co-IP with M53 from SW480 lysate, LC-MS.
Experiment [20] has as its target Isoform 2 of Glyceraldehyde-3-phosphate (name cut off as printed) (UniProt P04406). Briefly: co-IP with M53 from SW480 lysate, LC-MS.
The target of experiment [21] is Heat shock protein beta-1 OS = Homo sapiens (Homo sapiens) (UniProt P04792). Briefly: IP with isotype IgG control from SW480 lysate, LC-MS (negative control).
Experiment [22] addresses Tubulin beta chain OS = Homo sapiens GN = TUBB PE = 1 (Homo sapiens) (UniProt P07437). The experiment is described as above.
For experiment [23], the target named is Junction plakoglobin OS = Homo sapiens GN = JUP PE = 1 (Homo sapiens) (UniProt P14923). The experiment is described as above.
Experiment [24] addresses ATP synthase subunit beta, mitochondrial OS = Homo (name cut off as printed) (Homo sapiens) (UniProt P06576). The description is as above.
The target in experiment [25] is Heat shock cognate 71 kDa protein OS = Homo sapiens (Homo sapiens) (UniProt P11142). The experiment is described as above.
In experiment [26] the target is Isoform 2 of ATP synthase subunit alpha, mitochondrial (UniProt P25705). The description is as above.
The target in experiment [27] is Desmoplakin OS = Homo sapiens GN = DSP PE = 1 SV = 3 (Homo sapiens) (UniProt P15924). The experiment is described as above.
Experiment [28] addresses ADP/ATP translocase 3 OS = Homo sapiens GN = SLC25A6 (Homo sapiens) (UniProt P12236). The experiment is described as above.
Experiment [29] addresses endogenous fibronectin of human CRC cells (Isoform 10 of Fibronectin OS = Homo sapiens GN = FN1) (Homo sapiens) (UniProt P02751). The experiment is described as above.
In experiment [30] the target is Heat shock protein HSP 90-alpha OS = Homo sapiens (Homo sapiens) (UniProt P07900). The description is as above.
Experiment [31] concerns the target DNA-dependent protein kinase catalytic subunit (UniProt P78527). Described as above.
Experiment [32] deals with Isoform 2 of 40S ribosomal protein S20 OS = Homo (name cut off as printed) (Homo sapiens) (UniProt P60866). The description is as above.
In experiment [33] the target is Isoform 2 of Annexin A2 OS = Homo sapiens GN = ANXA2 (Homo sapiens) (UniProt P07355). The description is as above.
Experiment [34] addresses Myosin-9 OS = Homo sapiens GN = MYH9 PE = 1 SV = 4 (Homo sapiens) (UniProt P35579). The experiment is described as above.
The target of experiment [35] is Tubulin beta-4B chain OS = Homo sapiens GN = TUBB4B (Homo sapiens) (UniProt P68371). The description is as above.
In experiment [36] the target is 40S ribosomal protein S3 OS = Homo sapiens GN = RPS3 (Homo sapiens) (UniProt P23396). The experiment is described as above.
For experiment [37], the target named is Histone H4 OS = Homo sapiens GN = HIST1H4A PE = 1 (Homo sapiens) (UniProt P62805). The experiment is described as above.
Experiment [38] addresses 40S ribosomal protein S15a OS = Homo sapiens (Homo sapiens) (UniProt P62244). Described as above.
Experiment [39] has as its target Isoform 2 of Plectin OS = Homo sapiens GN = PLEC (Homo sapiens) (UniProt Q15149). The experiment is described as above.
In experiment [40] the target is Cytoplasmic dynein 1 heavy chain 1 OS = Homo sapiens (Homo sapiens) (UniProt Q14204). The description is as above.
Experiment [41] concerns the target Isoform 2 of Glyceraldehyde-3-phosphate (name cut off as printed) (UniProt P04406). The description is as above.

Sequence of dysadherin (FXYD5) as expressed in human CRC cells (endogenous in SW480 cells; overexpressed in HCT116 cells) (Q96DB9 22-178): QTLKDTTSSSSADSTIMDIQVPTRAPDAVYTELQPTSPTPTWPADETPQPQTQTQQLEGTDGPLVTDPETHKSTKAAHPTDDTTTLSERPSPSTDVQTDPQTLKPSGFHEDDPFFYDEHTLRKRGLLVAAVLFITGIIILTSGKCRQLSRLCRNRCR
Sequence of Myosin-9 OS = Homo sapiens GN = MYH9 PE = 1 SV = 4 (Homo sapiens) (P35579 2-1960 limits assumed): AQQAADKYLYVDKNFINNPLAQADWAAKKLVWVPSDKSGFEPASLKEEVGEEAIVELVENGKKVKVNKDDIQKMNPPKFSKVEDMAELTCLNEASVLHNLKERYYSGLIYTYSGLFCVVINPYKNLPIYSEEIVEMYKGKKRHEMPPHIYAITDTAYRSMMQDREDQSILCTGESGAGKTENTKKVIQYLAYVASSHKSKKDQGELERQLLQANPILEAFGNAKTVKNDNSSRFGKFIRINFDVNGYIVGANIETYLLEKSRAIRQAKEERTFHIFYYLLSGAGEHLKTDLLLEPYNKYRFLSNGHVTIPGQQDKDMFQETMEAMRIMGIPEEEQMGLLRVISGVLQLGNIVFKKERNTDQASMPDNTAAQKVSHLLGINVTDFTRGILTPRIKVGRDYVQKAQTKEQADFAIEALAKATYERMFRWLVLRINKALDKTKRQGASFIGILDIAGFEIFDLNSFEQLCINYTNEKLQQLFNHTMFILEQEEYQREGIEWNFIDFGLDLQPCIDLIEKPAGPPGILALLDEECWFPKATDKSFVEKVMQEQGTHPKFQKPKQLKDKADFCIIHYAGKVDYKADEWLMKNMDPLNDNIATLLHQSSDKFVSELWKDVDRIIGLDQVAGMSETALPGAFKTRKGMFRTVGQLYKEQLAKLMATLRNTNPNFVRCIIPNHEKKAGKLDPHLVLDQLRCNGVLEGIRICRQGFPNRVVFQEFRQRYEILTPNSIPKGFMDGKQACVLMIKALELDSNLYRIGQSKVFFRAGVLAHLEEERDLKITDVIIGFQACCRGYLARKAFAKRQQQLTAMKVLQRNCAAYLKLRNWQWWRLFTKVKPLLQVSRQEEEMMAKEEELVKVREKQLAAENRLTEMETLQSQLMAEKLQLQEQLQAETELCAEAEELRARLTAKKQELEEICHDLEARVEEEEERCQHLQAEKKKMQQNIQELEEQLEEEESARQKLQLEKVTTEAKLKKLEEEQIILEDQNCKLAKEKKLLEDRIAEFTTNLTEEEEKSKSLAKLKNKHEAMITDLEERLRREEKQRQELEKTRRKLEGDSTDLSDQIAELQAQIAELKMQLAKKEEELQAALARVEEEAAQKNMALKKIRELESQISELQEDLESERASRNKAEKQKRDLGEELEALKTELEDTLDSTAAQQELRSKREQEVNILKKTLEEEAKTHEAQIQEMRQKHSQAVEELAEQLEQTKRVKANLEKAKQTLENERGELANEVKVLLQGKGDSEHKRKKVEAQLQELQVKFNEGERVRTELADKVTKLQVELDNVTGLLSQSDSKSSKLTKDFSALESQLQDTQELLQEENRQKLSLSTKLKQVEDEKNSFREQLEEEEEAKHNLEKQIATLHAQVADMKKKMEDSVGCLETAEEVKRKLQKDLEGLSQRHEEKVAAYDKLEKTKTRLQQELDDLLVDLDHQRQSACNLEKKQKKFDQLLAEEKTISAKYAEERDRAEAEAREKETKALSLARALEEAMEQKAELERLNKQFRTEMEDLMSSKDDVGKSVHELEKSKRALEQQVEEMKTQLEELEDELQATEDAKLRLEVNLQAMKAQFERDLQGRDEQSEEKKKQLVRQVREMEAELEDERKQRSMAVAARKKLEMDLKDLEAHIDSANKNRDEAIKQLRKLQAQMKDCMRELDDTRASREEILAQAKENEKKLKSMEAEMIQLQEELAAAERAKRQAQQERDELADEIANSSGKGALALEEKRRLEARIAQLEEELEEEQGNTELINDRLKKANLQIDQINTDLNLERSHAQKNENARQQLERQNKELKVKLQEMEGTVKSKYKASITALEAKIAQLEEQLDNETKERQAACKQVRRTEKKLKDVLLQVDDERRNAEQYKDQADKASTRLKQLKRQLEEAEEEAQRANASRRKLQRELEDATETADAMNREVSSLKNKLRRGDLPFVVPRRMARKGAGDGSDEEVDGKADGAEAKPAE
Sequence of Tubulin beta-4B chain OS = Homo sapiens GN = TUBB4B (Homo sapiens) (P68371 whole entry): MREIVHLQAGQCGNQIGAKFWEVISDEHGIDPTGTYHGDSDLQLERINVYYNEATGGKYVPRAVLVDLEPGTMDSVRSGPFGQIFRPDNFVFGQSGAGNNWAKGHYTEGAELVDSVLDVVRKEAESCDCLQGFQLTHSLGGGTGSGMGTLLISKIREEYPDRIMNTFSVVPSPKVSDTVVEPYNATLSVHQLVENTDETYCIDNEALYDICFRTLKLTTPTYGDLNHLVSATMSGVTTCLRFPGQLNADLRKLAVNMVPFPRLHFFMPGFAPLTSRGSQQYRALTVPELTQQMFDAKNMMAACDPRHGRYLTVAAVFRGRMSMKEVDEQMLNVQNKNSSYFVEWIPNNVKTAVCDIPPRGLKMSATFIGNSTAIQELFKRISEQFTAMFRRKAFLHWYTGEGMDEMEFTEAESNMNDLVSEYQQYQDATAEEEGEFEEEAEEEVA
Sequence of Isoform 2 of Glyceraldehyde-3-phosphate (name cut off as printed) (P04406 43-335 limits assumed): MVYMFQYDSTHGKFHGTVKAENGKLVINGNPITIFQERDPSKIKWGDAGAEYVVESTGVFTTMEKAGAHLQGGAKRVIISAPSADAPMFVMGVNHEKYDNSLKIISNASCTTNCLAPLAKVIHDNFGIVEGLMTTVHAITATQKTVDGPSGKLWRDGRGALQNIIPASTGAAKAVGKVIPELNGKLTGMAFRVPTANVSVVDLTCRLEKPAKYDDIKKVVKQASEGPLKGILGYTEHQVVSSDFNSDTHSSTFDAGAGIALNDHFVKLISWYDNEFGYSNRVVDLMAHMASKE
Sequence of Junction plakoglobin OS = Homo sapiens GN = JUP PE = 1 (Homo sapiens) (P14923 whole entry): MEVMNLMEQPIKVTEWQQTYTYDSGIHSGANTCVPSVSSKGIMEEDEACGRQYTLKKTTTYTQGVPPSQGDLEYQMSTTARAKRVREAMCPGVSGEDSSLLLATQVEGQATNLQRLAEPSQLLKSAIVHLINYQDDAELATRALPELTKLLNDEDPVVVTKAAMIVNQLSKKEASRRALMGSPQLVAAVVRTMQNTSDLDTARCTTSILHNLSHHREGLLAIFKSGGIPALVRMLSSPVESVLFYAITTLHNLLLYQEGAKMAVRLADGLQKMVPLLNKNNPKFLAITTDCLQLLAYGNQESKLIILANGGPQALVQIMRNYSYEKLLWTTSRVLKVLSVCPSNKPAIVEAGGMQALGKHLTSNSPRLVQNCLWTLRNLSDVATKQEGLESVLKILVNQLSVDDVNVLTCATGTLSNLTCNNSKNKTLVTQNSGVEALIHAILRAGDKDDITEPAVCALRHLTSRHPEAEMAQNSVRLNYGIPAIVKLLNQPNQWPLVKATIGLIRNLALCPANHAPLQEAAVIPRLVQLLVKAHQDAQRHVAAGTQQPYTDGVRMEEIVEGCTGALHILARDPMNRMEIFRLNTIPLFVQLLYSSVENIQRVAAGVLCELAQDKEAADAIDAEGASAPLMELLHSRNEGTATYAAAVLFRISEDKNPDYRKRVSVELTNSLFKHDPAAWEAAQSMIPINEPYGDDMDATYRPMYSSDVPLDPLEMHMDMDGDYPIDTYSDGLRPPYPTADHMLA
Sequence of Heat shock protein beta-1 OS = Homo sapiens (Homo sapiens) (P04792 whole entry): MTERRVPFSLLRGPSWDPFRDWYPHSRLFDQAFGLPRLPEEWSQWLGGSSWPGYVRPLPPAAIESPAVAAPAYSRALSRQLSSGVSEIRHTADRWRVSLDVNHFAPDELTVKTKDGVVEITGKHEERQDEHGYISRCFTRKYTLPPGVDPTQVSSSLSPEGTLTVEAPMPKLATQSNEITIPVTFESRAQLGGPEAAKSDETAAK
Sequence of Heat shock cognate 71 kDa protein OS = Homo sapiens (Homo sapiens) (P11142 2-646 limits assumed): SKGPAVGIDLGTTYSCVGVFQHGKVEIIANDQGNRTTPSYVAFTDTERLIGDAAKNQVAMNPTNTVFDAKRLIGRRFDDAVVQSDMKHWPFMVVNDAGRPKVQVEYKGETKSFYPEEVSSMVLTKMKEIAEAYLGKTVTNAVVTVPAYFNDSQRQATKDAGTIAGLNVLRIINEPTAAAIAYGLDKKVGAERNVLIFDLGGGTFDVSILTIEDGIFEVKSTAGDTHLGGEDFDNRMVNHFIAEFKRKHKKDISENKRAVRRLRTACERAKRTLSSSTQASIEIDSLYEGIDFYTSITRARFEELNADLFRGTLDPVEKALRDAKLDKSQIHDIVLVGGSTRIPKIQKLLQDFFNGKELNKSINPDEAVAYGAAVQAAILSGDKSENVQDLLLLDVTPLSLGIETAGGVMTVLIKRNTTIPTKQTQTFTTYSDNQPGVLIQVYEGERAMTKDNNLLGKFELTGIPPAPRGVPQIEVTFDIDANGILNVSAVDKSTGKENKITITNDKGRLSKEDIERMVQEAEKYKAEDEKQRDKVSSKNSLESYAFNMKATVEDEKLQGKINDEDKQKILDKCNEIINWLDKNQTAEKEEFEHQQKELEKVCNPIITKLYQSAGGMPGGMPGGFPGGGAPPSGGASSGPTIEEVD
Sequence of ADP/ATP translocase 3 OS = Homo sapiens GN = SLC25A6 (Homo sapiens) (P12236 2-298 limits assumed): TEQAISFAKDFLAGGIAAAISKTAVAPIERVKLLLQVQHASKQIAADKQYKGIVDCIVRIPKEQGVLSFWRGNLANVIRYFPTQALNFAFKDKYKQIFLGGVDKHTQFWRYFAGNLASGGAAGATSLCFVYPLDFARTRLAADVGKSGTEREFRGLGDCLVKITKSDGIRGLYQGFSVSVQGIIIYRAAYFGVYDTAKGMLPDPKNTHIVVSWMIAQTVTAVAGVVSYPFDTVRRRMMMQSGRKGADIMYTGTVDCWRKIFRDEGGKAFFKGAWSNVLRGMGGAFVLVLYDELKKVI

As to “dysadherin (FXYD5) as expressed in human CRC cells (endogenous in SW480 cells; overexpressed in HCT116 cells) (from UniProt Q96DB9 22-178)”, the Probe identification probability in [1], in [2], in experiment [3], in experiment [4], in experiment [5] and in [6] was 100% each time. Besides, the Probe identification probability in experiment [7], in [8], in [9], in experiment [10], in experiment [11] and in [12] was 100% each time. Moreover, the Probe identification probability in [13], in experiment [14], in experiment [15], in experiment [16], in experiment [17] and in experiment [18] was 100% in each case. Moreover, the Probe identification probability in experiment [19] and in [20] was 100% throughout.
For the substance isotype IgG control antibody, the Probe identification probability worked out at 100% in [21]; 100% in experiment [22]; 98% in experiment [23]; 100% in experiment [24]; 100% in [25]; 100% in experiment [26]. Also, the Probe identification probability in experiment [27] came to 91%; in experiment [28], 100%; in experiment [29], 6%; in experiment [30], 100%; in experiment [31], 72%; in experiment [32] it was 100%. Also, the Probe identification probability in experiment [33] turned out to be 100%; in experiment [34], 13%; in experiment [35], 100%; in experiment [36] it was 100%; in [37], 100%; in experiment [38], 75%. For the same substance, the Probe identification probability came to 15% in experiment [39], 10% in experiment [40] and 99% in experiment [41].

Values taken from patent US20230357362A1.
